Data on six proteins can be found in patent US20090220476A1 (CELLECTIS, published 2009).

The target of series [1] is T1, I-CreI Q44, A68, N70, N75, P05725.
T1 chain: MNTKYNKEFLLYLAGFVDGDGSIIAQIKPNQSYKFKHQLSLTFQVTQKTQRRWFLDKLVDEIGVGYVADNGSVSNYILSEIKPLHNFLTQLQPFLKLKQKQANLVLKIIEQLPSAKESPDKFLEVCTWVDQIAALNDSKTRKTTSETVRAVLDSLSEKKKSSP

The target of series [2] is T2, I-CreI combinatorial mutant NNSRK/ARR, P05725.
T2 chain: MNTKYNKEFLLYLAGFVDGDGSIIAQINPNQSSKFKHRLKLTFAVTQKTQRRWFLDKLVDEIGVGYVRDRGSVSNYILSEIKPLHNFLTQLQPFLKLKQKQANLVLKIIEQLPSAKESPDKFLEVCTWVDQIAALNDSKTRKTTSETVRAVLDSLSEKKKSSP

Series [3] concerns the molecule itself. The experiment in a line: far-UV CD, 1H-NMR and analytical ultracentrifugation of purified protein; self-association (homodimer). The protocol: Novel I-CreI variants were expressed, purified, and analyzed for in vitro cleavage as reported previously (Arnould et al., precited). Circular dichroism (CD) measurements were performed on a Jasco J-810 spectropolarimeter using a 0.2 cm path length quartz cuvette. Equilibrium unfolding was induced increasing temperature at a rate of 1° C./min (using a programmable Peltier thermoelectric). Samples were prepared by dialysis against 25 mM potassium phosphate buffer, pH 7.5, at protein concentrations of 20 μM.
Finally, analysis of the structure and stability of this group of combinatorial mutants was performed using far-UV CD (FIG. 19d), ¹H-NMR and analytical ultracentrifugation. […] Thus, the two sets of residues that were mutated, K28, N30, Y33, Q38 and S40 on one hand, Q44, R68 and R70 on the other, define two relatively independent DNA binding sub-domains.

In series [4] the target is T3, I-CreI combinatorial mutant NNSRK/ASR, P05725.
T3 chain: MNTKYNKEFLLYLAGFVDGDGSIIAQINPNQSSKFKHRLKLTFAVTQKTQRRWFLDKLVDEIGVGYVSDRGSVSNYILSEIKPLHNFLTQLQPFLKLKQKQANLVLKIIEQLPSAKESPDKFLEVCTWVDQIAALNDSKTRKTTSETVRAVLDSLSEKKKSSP

B1: I-CreI K44, T68, G70, N75 (protein)
chain: MNTKYNKEFLLYLAGFVDGDGSIIAQIKPNQSYKFKHQLSLTFKVTQKTQRRWFLDKLVDEIGVGYVTDGGSVSNYILSEIKPLHNFLTQLQPFLKLKQKQANLVLKIIEQLPSAKESPDKFLEVCTWVDQIAALNDSKTRKTTSETVRAVLDSLSEKKKSSP
Regarding B1, the “cleavage of chimeric DNA targets gtt/gcc and gtt/cct (yeast LacZ recombination assay, co-expression)” value in series [1] was “co-expression of the K44, T68, G70, N75 (KTG) and Q44, A68, N70, N75 (QAN) mutants resulted in the cleavage of two chimeric targets, gtt/gcc and gtt/cct, that were not cleaved by either mutant alone”.

B2: I-CreI combinatorial mutant KNHQS/KAS (enzyme, UniProt P05725 1-163, looked up)
chain: MNTKYNKEFLLYLAGFVDGDGSIIAQIKPNQSHKFKHQLSLTFKVTQKTQRRWFLDKLVDEIGVGYVADSGSVSNYILSEIKPLHNFLTQLQPFLKLKQKQANLVLKIIEQLPSAKESPDKFLEVCTWVDQIAALNDSKTRKTTSETVRAVLDSLSEKKKSSP
notes: The scaffold ORF has three additional C-terminal codons (AAD)
Take B2: the “in vitro cleavage of the COMB1 target by purified proteins incubated together” value in series [2] is “Cleavage of the COMB1 target was also detected in vitro when the KNHQS/KAS and NNSRK/ARR purified proteins were incubated together with the COMB1 target in our conditions, while incubation of single protein did not give rise to any detectable cleavage activity. However, the cleavage efficiency was e”. Moreover, in series [3], the binding result was “binds”.

B3: I-CreI combinatorial mutant QNRQR/KEG (protein)
chain: MNTKYNKEFLLYLAGFVDGDGSIIAQIQPNQSRKFKHQLRLTFKVTQKTQRRWFLDKLVDEIGVGYVEDGGSVSNYILSEIKPLHNFLTQLQPFLKLKQKQANLVLKIIEQLPSAKESPDKFLEVCTWVDQIAALNDSKTRKTTSETVRAVLDSLSEKKKSSP
Regarding B3, the “cleavage of the chimeric site COMB1 (yeast LacZ recombination assay, co-expression)” value in series [4] is recorded as “co-expression resulted in cleavage of the chimeric sequence COMB1 among all tested heterodimers (QNRQR/KEG×NNSRK/ASR named as the example with the weaker activity)”.

B4: I-CreI combinatorial mutant KNHQS/KEG (enzyme, UniProt P05725 1-163, looked up)
chain: MNTKYNKEFLLYLAGFVDGDGSIIAQIKPNQSHKFKHQLSLTFKVTQKTQRRWFLDKLVDEIGVGYVEDGGSVSNYILSEIKPLHNFLTQLQPFLKLKQKQANLVLKIIEQLPSAKESPDKFLEVCTWVDQIAALNDSKTRKTTSETVRAVLDSLSEKKKSSP
notes: as for B2
As for B4, the “cleavage of the chimeric site COMB1 (yeast LacZ recombination assay, co-expression)” value in series [2] is “co-expression resulted in cleavage of the chimeric sequence COMB1 among all tested heterodimers (KNHQS/KEG×NNSRK/ARR named as the example with the higher level of activity)”. Moreover, the binding result in series [3] is “binds”.

B5: I-CreI combinatorial mutant NNSRK/ARR (enzyme, UniProt P05725 1-163, looked up)
chain: MNTKYNKEFLLYLAGFVDGDGSIIAQINPNQSSKFKHRLKLTFAVTQKTQRRWFLDKLVDEIGVGYVRDRGSVSNYILSEIKPLHNFLTQLQPFLKLKQKQANLVLKIIEQLPSAKESPDKFLEVCTWVDQIAALNDSKTRKTTSETVRAVLDSLSEKKKSSP
notes: as for B2
Regarding B5, the binding result in series [3] is “binds”.

B6: I-CreI combinatorial mutant NNSRK/ASR (enzyme, UniProt P05725 1-163, looked up)
chain: MNTKYNKEFLLYLAGFVDGDGSIIAQINPNQSSKFKHRLKLTFAVTQKTQRRWFLDKLVDEIGVGYVSDRGSVSNYILSEIKPLHNFLTQLQPFLKLKQKQANLVLKIIEQLPSAKESPDKFLEVCTWVDQIAALNDSKTRKTTSETVRAVLDSLSEKKKSSP
notes: as for B2
Turning to B6, in series [3], the binding result was “binds”.
